From article PMC7217966

Experiments:
CsgG (Escherichia coli) = CsgG (Escherichia coli) (UniProt P0AEA2); details: cited from earlier work
CsgG-6xHis (E. coli) = CsgG-6xHis (E. coli) (UniProt P0AEA2); test: SPR; Biacore 3000, NTA sensor chip activated with NiSO4; CsgG-His (200 nM) immobilised via the His-tag; N22 peptide injected at 50 μl/min, 20 − 1 nM; 10 mM HEPES, 150 mM NaCl, 0.36 mM DDM, pH 8.0; non-activated reference flow cell; 1:1 binding model

| Kd (CsgG-6xHis (E. coli)) [µM] | Substance | Kd (CsgG (Escherichia coli)) [µM] |
| --- | --- | --- |
|  | CsgA N6 peptide N6 (from UniProt P28307) | 28.3 |
| 0.53 | CsgA N22 peptide |  |
